According to US11452764B2, “Inhibiting FAK-AKT interaction to inhibit metastasis” (Board of Trustees of Michigan State University, priority 2017, dated 2022):
“Also recorded” adds a separate entry of the source. Values belong to the compound of their own block, whether it stands above or below them. Where no end group is shown, it is not given here.

Key:
FAK-Akt1 interaction = molecular target: T1, FAK-Akt1 interaction (Homo sapiens, UniProt P31749); assay: Interference of FAK-derived peptides with GST-FAK / GST-FAK-NT1 pull-down of Akt1; assay type: binding; conditions: for Akt1 pulldown by full length GST-FAK in presence of interfering 7 amino acid peptide: bait human wild type GST-FAK, peptides at 160 μM, vs. vehicle, n=12-14
T1 construct: endogenous in cells; host or cells: Akt1 from Caco-2/SW620 cell lysate; GST-FAK bait expressed in E. coli BL21 (pGEX-4T1)
Protocol: (§1) In some cases Glutathione-Sepharose-4B beads (30 μl) (GE Healthcare Life Science, Pittsburgh, Pa.) were conjugated with GST (expressed protein from a 250 μl bacterial pellet per 30 μl of beads) or recombinant GST-tagged (expressed protein from a 3 ml bacterial pellet per 30 μl of beads) (24) and incubated with lysate from 2×10^7 Caco-2 or SW620 cells (1500 μg protein) or purified Akt1 (0.35 μg) (Origene, Rockville, Md.) overnight at 4° C. Similar incubation for two hours at 4° C. was performed with FAK-derived peptides (Peptide 2.0, Chantilly, Va.) reconstituted in sterile water and mixed with conjugated beads and cell lysate for a final concentration of […] before overnight Akt1 incubation. Bound protein was eluted for western analysis (24).
To minimize the effect of non-specific binding to GST, a larger FAK-NT1 peptide (relative to GST) was used as bait and the effects of interference by NT1-2-2 FAK truncated peptides were assessed.
A full length GST-FAK was used as bait to further validate the ability of the interfering peptides to block Akt1 interaction with the entire FAK molecule. Because the seven-amino acid sequence from the short helix (LAHPPEE, SEQ ID NO:1) seemed sufficient for Akt1 binding (e.g., as shown in FIG. 6E), the focus was placed on this seven amino acid sequence and mutants thereof. […] Neither a scrambled version of the short helix (HPELAPE, SEQ ID NO:23) nor a peptide derived from the β-strand secondary structure C-terminal adjacent to the short helix (WKYELRI) interfered with pulldown.

[1] = tested on: FAK-Tyr-397 phosphorylation; assay: FAK-Y397 western blotting in suspended SW620 cells at ambient or 15 mmHg increased pressure (ZINC compounds); assay type: cell-based, human; conditions: for Pressure stimulation of FAK-pTyr397 / Basal FAK-pTyr397: concentrations studied: ZINC31501681 1 pM-300 μM, ZINC58264388 1 nM-100 nM, ZINC40099027 10 pM-10 nM, ZINC25613745 1 nM
From the text: Extracellular pressure was increased by 15 mmHg over ambient pressure using a temperature and pressure-controlled box as described by Basson et al. (J Cell Biochem, 78: 47-61 (2000)).
Cells were maintained at ambient or increased pressure in bacteriologic plastic dishes pacificated with heat-inactivated bovine serum albumin to prevent adhesion and avoid adhesion-associated background FAK activation. Cells were lysed in lysis buffer, resolved by 10% SDS-PAGE, transferred to nitrocellulose and blotted with antibody to Tyr-397-phosphorylated FAK (rabbit monoclonal ab81298, Abcam, San Francisco, Calif., USA) and anti-rabbit 680 (LI-COR Inc. Lincoln, Nebr., USA), before quantitation using Kodak Scientific Imaging Systems 1D, V.3.5.4 (Zeng et al., Oncotarget, 8 98051-98067 (2017)). Total FAK (Anti-FAK, clone 4.47 Merck, Darmstadt, Germany with secondary anti-mouse 800, LI-COR Inc. Lincoln, Nebr., USA) served as a loading control. FAK and Tyr-397-phosphorylated FAK western blots yielded doublets similar to those previously observed by others (McConnell et al. Mol Cancer 10: 75 (2011); Aflaki et al. Cell Mol Life Sci, 68: 3933-3947 (2011)); Das et al. Cancer Res, 72: 6217-6226 (2012); Ammoun et al. Oncogene, 31: 1710-1722 (2012)). Both bands were quantitated together.
Four structurally similar molecules to the FAK-derived sequence LAHPP (SEQ ID NO:25) (Table 2) were evaluated for their ability to prevent FAK activation by 15 mmHg increased extracellular pressure in human SW620 colon cancer cells. […] The structures of these compounds are shown below (and in FIG. 17).

Akt1 = Akt1 (Homo sapiens, UniProt P31749); assay: GST-FAK truncation/mutant fusion protein pull-down of Akt1 (cell lysate or purified Akt1); assay type: binding; design: endogenous in cells; host or cells: Caco-2 or SW620 cell lysate; conditions: for Akt1 pull-down by mutated GST-FAK-NT1 versus wild-type NT1: SW620 lysate, densitometry normalized to wild-type NT1, n=8-19, p<0.05; for Akt1 pulled down by GST-FAK truncations: GST pull-down, N=4, p<0.05
Protocol: Glutathione-Sepharose 4B beads (15 μl) were washed twice in ice-cold PBS and resuspended in 400 μl PBS. Bacterial lysate containing GST-Akt1, GST-FAK-NT1 (truncations), or GST proteins (gift of Dr. J. Chen) were then added in excess and incubated with the beads for 1 h. Glutathione-Sepharose 4B beads coupled to GST-Akt1, GST-FAK (truncations), or GST were then washed twice with PBS by centrifuge for 5 min at 500 g and incubated with nontransfected or transfected Caco-2 cell lysates (600-800 μg protein) overnight at 4° C. Transfected Caco-2 cells received plasmids encoding HA-WT-FAK or HA-FRNK. Nontransfected and transfected Caco-2 cell lysates were prepared in cell lysis buffer lysis buffer [50 mM Tris (pH 7.4), 150 mM NaCl, 1% Triton X-100, 1% sodium deoxycholate, 0.1% SDS, 1 mM EDTA, 1 mM phenylmethylsulfonyl fluoride, 1 mM Na3VO4, 50 mM NaF, 10 mM sodium pyrophosphate, […] (pH 7.4)]. Following incubation, beads were washed twice with lysis buffer without SDS and protease inhibitors. Proteins were eluted with Laemmli SDS sample dilution buffer, separated by 10% SDS-PAGE, and immunoblotted with GST, Akt1 (Cell Signaling Technology, Danvers, Mass.), or HA monoclonal antibodies (Covance, Chantilly, Va.).
as §1
Protein concentrations were determined by bicinchoninic acid (BCA) protein assay (Pierce, Rockford, Ill.). Eluate from GST pull-downs or collected cell lysates was resolved by SDS-PAGE and transferred to Hybond P 0.45 PVDF blotting membrane (Amersham Life Science, Arlington Heights, Ill.). Membranes were blocked for 1 hour at room temperature with Odyssey TBS Blocking Buffer (Amersham Life Science, Arlington Heights, Ill.) and blotted overnight at 4° C. with antibodies against FAK (#3285), Phospho-FAK Tyr397 (#3283), Akt1 (#2967), Phospho-Akt1 Ser473 (#9271), GSK-3β (#9315), Phospho-GSK-3β Ser9 (#9315), or the GST tag (#2624) (CST, Beverly, Mass.). Membranes were visualized by the infrared fluorescent IRDye system (LI-COR Biosciences, Lincoln, Nebr.) and analyzed on an Odyssey scanner (LI-COR Biosciences, Lincoln, Nebr.) within the linear range. The doublet produced by the Akt1 antibody is consistent with results with this antibody (Ko et al., Elife: 5 (2016); Wu et al. Cell Discov 3: 16054 (2017)) and other (Datta et al. Cell 91: 231-41 (1997)) anti-Akt antibodies. Results were normalized to the appropriate GST tag, GAPDH, or total protein (for phosphorylated proteins) and relative to associated ambient controls unless stated otherwise.
Because the NT1 region of FAK is still quite large, we further truncated FAK-NT1 in an attempt to specify the region responsible for Akt1 binding. Five truncations were generated: NT1 (residues 1-126), NT1-1 (residues 1-60), NT1-2 (residues 61-126), […] (residues 61-93), and NT1-2-2 (residues 94-126) (FIG. 4A).
Tests involved use of 0.3 μg of purified Akt1 in pull-down assays to approximate the Akt1 in 1,500 μg of whole cell lysate, the lysate from 1×10^7 SW620 cells previously used in similar pull-down assays. This amount (0.3 μg of purified Akt1) was selected from Western blots comparing band intensity of 0.001-0.05 μg/lane of purified Akt1 against the band intensity of 40 or 80 μg/lane of cell lysate (not shown). […]

[2] = SW620, 15 mmHg increased pressure

T1 sequence (P31749 whole entry): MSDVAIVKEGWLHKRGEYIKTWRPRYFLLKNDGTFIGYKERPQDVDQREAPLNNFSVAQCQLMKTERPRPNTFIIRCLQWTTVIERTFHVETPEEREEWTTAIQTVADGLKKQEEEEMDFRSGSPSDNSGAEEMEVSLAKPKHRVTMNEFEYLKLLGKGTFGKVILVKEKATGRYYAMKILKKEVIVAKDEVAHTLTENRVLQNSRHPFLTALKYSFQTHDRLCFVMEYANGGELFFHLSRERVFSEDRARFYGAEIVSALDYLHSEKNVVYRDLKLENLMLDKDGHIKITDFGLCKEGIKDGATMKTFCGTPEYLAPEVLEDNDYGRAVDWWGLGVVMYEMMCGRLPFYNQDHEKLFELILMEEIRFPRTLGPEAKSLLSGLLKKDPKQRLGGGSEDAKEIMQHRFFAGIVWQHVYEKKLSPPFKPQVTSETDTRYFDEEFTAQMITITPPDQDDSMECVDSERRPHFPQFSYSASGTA
Akt1, sequence (P31749 whole entry, the tested form may be a part): as the sequence (P31749 whole entry) above

Compound: LAHPPEE (listed as Homo sapiens) [wild-type seven amino acid short helix peptide, FAK residues 113-119]
Akt1 pulldown by full length GST-FAK in presence of interfering 7 amino acid peptide (FAK-Akt1 interaction): reduced Akt1 pulldown

Compound: EVHWVHLDMGVSSVREKYELAHPPEEWKYELRI (listed as Homo sapiens) [Pep-FAK-NT1-2-2, wild-type 33 amino acid FAK peptide, residues 94-126]
Akt1 pulled down by GST-FAK-NT1 in presence of interfering 33 amino acid peptide (FAK-Akt1 interaction; bait GST-FAK-NT1, vs. vehicle (water), n=4): reduced binding between GST-FAK-NT1 and Akt1

Compound: Cc1ccccc1[C@@H]1CCCN1C(=O)C[C@H](NC(N)=O)c1cccs1 [ZINC58264388]
Concentrations at which there was no further increase of FAK-pTyr397 by pressure [1, 2]: (10-100 nM)
Pressure stimulation of FAK-pTyr397 [1, 2]: prevented a further pressure-induced increase in FAK-Tyr-397 phosphorylation
Concentrations at which basal FAK-pTyr397 was increased ([1]; SW620, ambient pressure): (10-100 nM)
Basal FAK-pTyr397 ([1]; SW620, ambient pressure): increased basal FAK-Tyr-397 phosphorylation

Akt1 pulldown by full length GST-FAK in presence of interfering 7 amino acid peptide (FAK-Akt1 interaction): No such effect
Compound: HPELAPE [scrambled short helix control peptide, reference compound]

Akt1 pull-down by mutated GST-FAK-NT1 versus wild-type NT1 (Akt1): lowered Akt1 pull-down
Compound: FAK(P117S): GST-FAK-NT1 with P117S mutation (LAHPSEE)

Akt1 pulled down by GST-FAK truncations (Akt1): significantly smaller amount of Akt1
Compound: NT1-2-1: recombinant GST-FAK truncated peptide, residues 61-93 (ATDVRGIIQKIVDSHKVKNVACYGFRLSHLRSE; also: recombinant GST fusion (GST tag); listed as Homo sapiens)

Compound: C=C(Cl)/C(=C\C)[C@H](CC(=O)N1CCC[C@H]1c1ccc(OC)c(OC)c1)NC(N)=O [ZINC25613745]
Pressure stimulation of FAK-pTyr397 [1, 2]: affected neither basal nor pressure-stimulated FAK-Tyr-397 phosphorylation; also recorded: Maintained
Basal FAK-pTyr397 ([1]; SW620, ambient pressure): affected neither basal nor pressure-stimulated FAK-Tyr-397 phosphorylation; also recorded: No change

Akt1 pulldown by full length GST-FAK in presence of interfering 7 amino acid peptide (FAK-Akt1 interaction): No such effect
Compound: WKYELRI [β-strand control peptide, C-terminal adjacent to the short helix, reference compound]

Akt1 pulldown by full length GST-FAK in presence of interfering 7 amino acid peptide (FAK-Akt1 interaction): reduced Akt1 pulldown
Compound: LAHPSEE [mutant (P117S) version of the seven amino acid FAK peptide]

Akt1 pulldown by full length GST-FAK in presence of interfering 7 amino acid peptide (FAK-Akt1 interaction): reduced Akt1 pulldown
Compound: AAHCGEE [triple mutant L113A, P116C, P117G version of the FAK peptide]

Compound: O=C(N[C@@H](CC(=O)N1CCC[C@H]1c1nnc2ccccn12)c1ccccc1)c1ccccc1 [ZINC31501681]
Pressure stimulation of FAK-pTyr397 [1, 2]: prevented a further pressure-induced increase in FAK-Tyr-397 phosphorylation
Basal FAK-pTyr397 ([1]; SW620, ambient pressure): increased basal FAK-Tyr-397 phosphorylation
Phosphorylation of FAK-Tyr-397 at ambient pressure (pFAKY397/FAK) ([1]; suspended SW620, 1-100 pM, 30 minutes, vs 0.1% DMSO, five experiments, p≤0.05): enhances the phosphorylation of FAK-Tyr-397

Akt1 pulled down by GST-FAK truncations (Akt1): significantly smaller amount of Akt1
Compound: NT1-1: recombinant GST-FAK truncated peptide, residues 1-60 (MAAAYLDPNLNHTPNSSTKTHLGTGMERSPGAMERVLKVFHYFESNSEPTTWASIIRHGD; also: recombinant GST fusion (GST tag); listed as Homo sapiens)

Compound: COc1ccc([C@@H]2CCCN2C(=O)Nc2cc(C(F)(F)F)ccc2N2CCOCC2)cc1 [ZINC40099027]
Pressure stimulation of FAK-pTyr397 [1, 2]: prevented a further pressure-induced increase in FAK-Tyr-397 phosphorylation
Basal FAK-pTyr397 ([1]; SW620, ambient pressure): increased basal FAK-Tyr-397 phosphorylation

Akt1 pull-down by mutated GST-FAK-NT1 versus wild-type NT1 (Akt1): increased Akt1 pull-down
Compound: FAK(L113A/P116C/P117G): GST-FAK-NT1 triple mutant (AAHCGEE)

Akt1 pulled down by GST-FAK truncations (Akt1): significantly more Akt1
Akt1 pull-down by GST-NT1-2-2 and its truncations versus GST control (Akt1; n=6, p<0.05 vs. GST): pulled down much more
Compound: NT1-2-2: recombinant GST-FAK truncated peptide, residues 94-126 (SEQ ID NO:2) (EVHWVHLDMGVSSVREKYELAHPPEEWKYELRI; also: GST fusion (recombinant))
